Measurements published in US20180236032A1.
Like-named read-outs stand apart in the source and are kept apart here.

Legend:
Assay in all cases: cell-based or functional assay
[1] = target: FGFR3c expressed on BaF3 cells (BaF3/FGFR3c)
[2] = target: FGFR3c expressed on BaF3 cells (BaF3/FGFR3c); remark: listed apart in the source
[3] = target: FGFR3c expressed on BaF3 cells (BaF3/FGFR3c); remark: listed apart in the source

recombinant truncated FGF-18 (trFGF-18) (from UniProt O76093 28-196) (ligand)
BaF3/FGFR3 cell proliferation, O.D. (WST-1), Sprifermin 100 ng/mL (CTR+) [1]: 0.5 O.D. | BaF3/FGFR3 cell proliferation, Optical Density (WST-1), Sprifermin 100 ng/mL (CTR+) [1]: 0.5 O.D. | BaF3/FGFR3 cell proliferation, O.D. (WST-1), Sprifermin 100 ng/mL (CTR+) [2]: 0.15 O.D. | BaF3/FGFR3 cell proliferation, O.D. (WST-1), Sprifermin 100 ng/mL (CTR+) [3]: 0.194 O.D.
